Results from patent publication US20140220033A1, “Administration of an Anti-Activin-A Compound to a Subject” (Santa Maria Biotherapeutics, Inc., priority 2013, published 2014).

Tests used:
[1] = tested on: activin-A (βA) mRNA; assay: Northern blot of activin-A (βA) mRNA in tumors of inh-KO mice; assay type: in vivo, mouse; conditions: increase over WT controls, FIG. 5A
Protocol: (§1) 12-week-old female and 8-week-old male inh-KO mice with fully established ovarian or testicular tumors received a single injection of PBS or sActRIIB (30 mg/kg, SC). As a control, age-matched wild-type littermates received a single injection of PBS. Ovarian and testicular organ weights were determined by necropsy 14 days after the injection.
Total RNA was isolated from individual tissue samples after homogenization in Trizol (Invitrogen). A pool of 10 μg RNA for each group containing equal amounts of total RNA isolated from individual animals was subjected to Northern blot analysis. The northern probes used for βA and Ang-2 were generated by using RT-PCR (Phusion, Biolabs). βA primer set: 5′-CCCTTGCTTTGGCTGAGAGGA-3′ and 5′-TC ACA GGT CGT CGT AGG TCG-3′; Ang-2 primer set: 5′-TGT GCC GGG GAG AAG AG and 5′-TACAGTAGTGGGTTGAGGTTC-3′. To normalize the expression, northern blot membranes were re-probed with β-actin.

[2] = tested on: Smad2 signaling (phospho-Smad2); assay: Western blot of phospho-Smad2 in tumors of inh-KO mice; assay type: in vivo, mouse; conditions: increase over WT controls, FIG. 5B
Protocol: as §1
(§2) Protein extracts were prepared from cell cultures or tissues in T-PER tissue protein extraction reagent (Pierce) containing a mixture of protease inhibitors (Roche). A pool of 50 μg total protein for each group containing equal amounts of protein extract isolated from individual animals was separated by NuPAGE 4-12% Bis-Tris gel (Invitrogen) and transferred to PVDF. The membranes were probed with primary antibodies against total Smad2, p-Smad2 or E-cadherin (1:1000; Cell Signaling), endoglin, osteopontin (1:500; R&D Systems), IGFBP-1, IGFBP-2 (1:500; Abcam) followed by HRP-conjugated secondary antibody (1:2000; Cell Signaling). The membranes were stripped and re-probed with antibody against α-tubulin (1:1000; Cell Signaling).

[3] = tested on: VEGF; assay: Serum VEGF in inh-KO mice (ELISA); assay type: in vivo, mouse; conditions: inh-KO mice with advanced ovarian and testicular tumors; single dose; FIG. 8A
Protocol: as §1
(§3) The serum VEGF levels in inh-KO mice were measured by using immunoassay kit (R&D Systems), and the levels of human VEGF and Ang-1 in cell line culture medium were quantified using ELISA kits purchased from Invitrogen (VEGF) and R&D Systems (Ang-1), by following the manufacturers' recommended protocols.

[4] = tested on: endoglin; assay: Western blot of endoglin in ovarian tumors of inh-KO mice; assay type: in vivo, mouse; conditions: FIG. 8D
Protocol: as §1, §2

[5] = tested on: osteopontin; assay: Western blot of osteopontin in ovarian tumors of inh-KO mice; assay type: in vivo, mouse; conditions: FIG. 8D
Protocol: as §1, §2

[6] = tested on: IGFBP-1; assay: Western blot of IGFBP-1 in ovarian tumors of inh-KO mice; assay type: in vivo, mouse; conditions: FIG. 8D
Protocol: as §1, §2

[7] = tested on: IGFPB-2; assay: Western blot of IGFBP-2 in ovarian tumors of inh-KO mice; assay type: in vivo, mouse; conditions: FIG. 8D
Protocol: as §1, §2

[8] = tested on: VEGF; assay: VEGF immunostaining in TOV-21G xenograft tumor sections; assay type: in vivo, mouse; conditions: treated vs untreated sections (strong immunostaining); FIG. 15A
Protocol: (§4) 5×10^6 TOV-21G ovarian cancer cells were implanted subcutaneously into individual female athymic nu/nu mice (Harlan). Treatment was initiated at day 12 after tumor implantation, when the average tumor volume reached approximately 150 mm^3. The mice received PBS, sActRIIB (30 mg/kg, SC, 1×/week) or activin-A antibody (30 mg/kg, SC, 2×/week). In a separate chemotherapy combination experiment, the mice were treated with PBS, sActRIIB (10 mg/kg, SC, 1×/week), 5-FU (50 mg/kg, IP, 3 cycles, 4 daily injections per cycle) or sActRIIB and 5-FU combination at the same doses above.
(§5) Zinc-formalin fixed paraffin tumor tissue sections of 4 μm in thickness were prepared. The sections were subjected to antigen retrieval by microwave 3 min in Unmask solution (Vector H-3300) followed by incubation in 10 μg/ml Proteinase-K for 20 min and in 1% H2O2 in dH2O for 10 min at room temperature. The sections were further incubated in 0.1% Tween-20 in PBS for 3 min to permeabilize the cell membrane and in goat serum for 30 min to block non-specific binding. The sections were then incubated at room temperature with specific primary antibody for 3 hours followed by incubation in biotinylated or fluorescently labeled secondary antibody. […] The immunostained tissue sections were analyzed and photographed using a Nikon Eclipse 90i microscope equipped with DS-Ril camera. […]

[9] = tested on: caspase-3; assay: Active caspase-3 immunostaining in TOV-21G xenograft tumor sections; assay type: in vivo, mouse; conditions: FIG. 15C
Protocol: as §4, §5

[10] = tested on: Ang-1 mRNA; assay: Ang-1 mRNA in cell cultures (real-time RT-PCR); assay type: cell-based, human, bovine; conditions: BAEC, MRC-5 and CCD-Lu cultures treated with recombinant activin-A, without or with sActRIIB; FIG. 16B
[11] = tested on: VEGF; assay: VEGF release into culture medium (ELISA); assay type: cell-based, human; conditions: TOV21G, MRC-5, CCD-Lu and TPH-1 cells treated with activin-A, without or with sActRIIB; FIG. 17A
Protocol: as §3

[12] = tested on: Ang-1; assay: Ang-1 release into culture medium (ELISA); assay type: cell-based, human; conditions: MRC-5 and CCD-Lu cells treated with activin-A, without or with sActRIIB; FIG. 17B
Protocol: as §3

B1: sActRIIB: extracellular domain of human activin type-2B receptor fused to IgG2 Fc, expressed in CHO cells; sequence in the 26th table (protein)
chain: ETRWCIYYNANWELERTNQGLERCEGEQDKRLHCYASWRNSSGTIELVKKGCWLDDFNCYDRQECVATEENPQVYFCCCEGNFCNERFTHLPEAGGPEVTYEPPPTAPTGGGGSVECPPCPAPPVAGPSVFLFPPKPKDTLMISRTPEVTCVVVDVSHEDPEVQFNWYVDGVEVHNAKTKPREEQFNSTFRVVSVLTVVHQDWLNGKEYKCKVSNKGLPAPIEKTISKTKGQPREPQVYTLPPSREEMTKNQVSLTCLVKGFYPSDIAVEWESNGQPENNYKTTPPMLDSDGSFFLYSKLTVDKSRWQQGNVFSCSVMHEALHNHYTQKSLSLSPGK
modifications: left off: a dimerising Fc or GST
[1]
  βA transcripts in the tumors (Northern blot): completely blocked
[2]
  phospho-Smad2 in tumor tissues (Western blot): eliminated this increase in phospho-Smad2
[3]
  circulating VEGF levels: rapidly lowered the elevated VEGF to WT control levels
[4]
  endoglin induction (Western blot): abolished completely
[5]
  osteopontin induction (Western blot): abolished completely
[6]
  IGFBP-1 induction (Western blot): abolished completely
[7]
  IGFPB-2 induction (Western blot): abolished completely
[8]
  VEGF immunostaining in TOV-21G tumor sections: virtually none
[9]
  active caspase-3 in TOV-21G tumors: profound increases
[10]
  levels of Ang-1 mRNA: prevented this induction
[11]
  release of VEGF into the culture medium: blocked completely
[12]
  release of Ang-1 into the culture medium: blocked completely
